How the values were obtained:
His-BARD1 14-189 = His-BARD1 14-189 (UniProt Q99728)
His-BARD1 1-320 = His-BARD1 1-320 (UniProt Q99728)
Sequence of His-BARD1 1-320 (Q99728 1-320): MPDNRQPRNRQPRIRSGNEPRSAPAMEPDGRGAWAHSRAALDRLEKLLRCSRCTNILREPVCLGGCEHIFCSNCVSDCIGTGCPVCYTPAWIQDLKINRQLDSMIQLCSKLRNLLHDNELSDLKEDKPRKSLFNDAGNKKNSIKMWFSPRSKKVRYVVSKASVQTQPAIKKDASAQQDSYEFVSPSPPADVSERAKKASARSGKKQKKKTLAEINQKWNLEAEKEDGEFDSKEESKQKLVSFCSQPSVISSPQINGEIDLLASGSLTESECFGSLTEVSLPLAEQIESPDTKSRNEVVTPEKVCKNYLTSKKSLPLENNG

Sequence of His-BARD1 14-189 (Q99728 14-189): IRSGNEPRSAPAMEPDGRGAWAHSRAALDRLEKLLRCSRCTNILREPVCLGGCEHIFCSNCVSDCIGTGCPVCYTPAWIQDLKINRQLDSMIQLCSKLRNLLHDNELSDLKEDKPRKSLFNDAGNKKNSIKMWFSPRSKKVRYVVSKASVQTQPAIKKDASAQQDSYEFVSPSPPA

Substance | in vitro kinase assay ([gamma-32P]ATP, autoradiography) (His-BARD1 14-189) | in vitro kinase assay ([gamma-32P]ATP, autoradiography) (His-BARD1 1-320)
CDK2-cyclin E1 | both His-BARD^14-180 and HA-BARD1^1-320 were phosphorylated in vitro with CDK2-cyclin E1 and CDK1-cyclinc B1 | both His-BARD^14-180 and HA-BARD1^1-320 were phosphorylated in vitro with CDK2-cyclin E1 and CDK1-cyclinc B1
HA-CDK1-cyclin B1 | both His-BARD^14-180 and HA-BARD1^1-320 were phosphorylated in vitro with CDK2-cyclin E1 and CDK1-cyclinc B1 | both His-BARD^14-180 and HA-BARD1^1-320 were phosphorylated in vitro with CDK2-cyclin E1 and CDK1-cyclinc B1
